This assay addresses Full-length isoform 165 of human VEGF-A (human) (UniProt P15692). Kind of assay: SPR; Biacore T200, 25 °C, PBS with 0.05% Tween 20 and 3.4 mM EDTA; VEGF-A amine-coupled to a CM-5 chip; Fab injected in single cycle kinetics with five increasing concentrations; double referenced; fit to a 1:1 Langmuir binding model.

Kd data for two molecules are collected here from paper PMC8560851.

Full-length isoform 165 of human VEGF-A (human), sequence (P15692 other isoform, or with tags, fused parts or gaps): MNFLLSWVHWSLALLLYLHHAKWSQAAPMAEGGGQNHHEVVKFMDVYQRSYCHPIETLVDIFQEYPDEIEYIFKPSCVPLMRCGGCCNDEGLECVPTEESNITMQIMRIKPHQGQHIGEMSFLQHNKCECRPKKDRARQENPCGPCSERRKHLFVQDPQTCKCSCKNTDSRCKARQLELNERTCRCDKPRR

B1: bH1 Fab H3 variant 16_0325 (Fab, V domains shown)
VH: EVQLVESGGGLVQPGGSLRLSCAASGFNIKDTYIHWVRQAPGKGLEWVARIYPTNGYTRYADSVKGRFTISADTSKNTAYLQMNSLRAEDTAVYYCARGGAVAGTGVYYFDYWGQGTLVTVSS
VL: DIQMTQSPSSLSASVGDRVTITCRASQDIPRSISGYVAWYQQKPGKAPKLLIYWGSYLYSGVPSRFSGSGSGTDFTLTISSLQPEDFATYYCQQHYTTPPTFGQGTKVEIK
B1 returned a dissociation constant (Kd) of 8 nM.

B2: bH1 Fab H3 variant 14_0112 (Fab, V domains shown)
VH: EVQLVESGGGLVQPGGSLRLSCAASGFNIKDTYIHWVRQAPGKGLEWVARIYPTNGYTRYADSVKGRFTISADTSKNTAYLQMNSLRAEDTAVYYCAKGGSSSGPYHFEYWGQGTLVTVSS
VL: DIQMTQSPSSLSASVGDRVTITCRASQDIPRSISGYVAWYQQKPGKAPKLLIYWGSYLYSGVPSRFSGSGSGTDFTLTISSLQPEDFATYYCQQHYTTPPTFGQGTKVEIK
With B2, the Kd turned out to be 8 nM.
